Assay results as given in patent publication US20210230244A1 (NATIONAL INSTITUTE OF IMMUNOLOGY, published 2021).
Bridge positions count the residues as written; N and C are the ends. Ends that are not written are not given here.

Biological target: T1, Abeta 1-42 peptide
T1 construct: Used at 100 micromolar in PBS pH 7.4 at 37 C, where it aggregates into oligomers and fibrils, so it was not a defined monomer in the assays; also called Abeta42; Abeta 42
Assay: Glu-OC (25 ng-0.1 ng) incubated with 100 micromolar Abeta42; A11 reactivity and AFM

T1 sequence (peptide, as listed by the source): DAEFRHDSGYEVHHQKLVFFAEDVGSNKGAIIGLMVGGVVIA

binding result: binds
B1: undercarboxylated osteocalcin (peptide)
peptide: YLYQWLGAPVPYPDPLEPRREVCELNPDCDELADHIGFQEAYRRFYGPV
modifications: disulfide 23-29
notes: also called Glu-OC; uncarboxylated osteocalcin
